Assay results taken from patent US10023909.
Read-outs that look alike come from different tables or passages of the source.

Target: DNMT1 (Mus musculus) (UniProt P13864)
Settings: 5mC and 5hmC on top strand only, SAM, 37 C, 4 h

Chain of UniProt P13864 (P13864 other isoform, or with tags, fused parts or gaps): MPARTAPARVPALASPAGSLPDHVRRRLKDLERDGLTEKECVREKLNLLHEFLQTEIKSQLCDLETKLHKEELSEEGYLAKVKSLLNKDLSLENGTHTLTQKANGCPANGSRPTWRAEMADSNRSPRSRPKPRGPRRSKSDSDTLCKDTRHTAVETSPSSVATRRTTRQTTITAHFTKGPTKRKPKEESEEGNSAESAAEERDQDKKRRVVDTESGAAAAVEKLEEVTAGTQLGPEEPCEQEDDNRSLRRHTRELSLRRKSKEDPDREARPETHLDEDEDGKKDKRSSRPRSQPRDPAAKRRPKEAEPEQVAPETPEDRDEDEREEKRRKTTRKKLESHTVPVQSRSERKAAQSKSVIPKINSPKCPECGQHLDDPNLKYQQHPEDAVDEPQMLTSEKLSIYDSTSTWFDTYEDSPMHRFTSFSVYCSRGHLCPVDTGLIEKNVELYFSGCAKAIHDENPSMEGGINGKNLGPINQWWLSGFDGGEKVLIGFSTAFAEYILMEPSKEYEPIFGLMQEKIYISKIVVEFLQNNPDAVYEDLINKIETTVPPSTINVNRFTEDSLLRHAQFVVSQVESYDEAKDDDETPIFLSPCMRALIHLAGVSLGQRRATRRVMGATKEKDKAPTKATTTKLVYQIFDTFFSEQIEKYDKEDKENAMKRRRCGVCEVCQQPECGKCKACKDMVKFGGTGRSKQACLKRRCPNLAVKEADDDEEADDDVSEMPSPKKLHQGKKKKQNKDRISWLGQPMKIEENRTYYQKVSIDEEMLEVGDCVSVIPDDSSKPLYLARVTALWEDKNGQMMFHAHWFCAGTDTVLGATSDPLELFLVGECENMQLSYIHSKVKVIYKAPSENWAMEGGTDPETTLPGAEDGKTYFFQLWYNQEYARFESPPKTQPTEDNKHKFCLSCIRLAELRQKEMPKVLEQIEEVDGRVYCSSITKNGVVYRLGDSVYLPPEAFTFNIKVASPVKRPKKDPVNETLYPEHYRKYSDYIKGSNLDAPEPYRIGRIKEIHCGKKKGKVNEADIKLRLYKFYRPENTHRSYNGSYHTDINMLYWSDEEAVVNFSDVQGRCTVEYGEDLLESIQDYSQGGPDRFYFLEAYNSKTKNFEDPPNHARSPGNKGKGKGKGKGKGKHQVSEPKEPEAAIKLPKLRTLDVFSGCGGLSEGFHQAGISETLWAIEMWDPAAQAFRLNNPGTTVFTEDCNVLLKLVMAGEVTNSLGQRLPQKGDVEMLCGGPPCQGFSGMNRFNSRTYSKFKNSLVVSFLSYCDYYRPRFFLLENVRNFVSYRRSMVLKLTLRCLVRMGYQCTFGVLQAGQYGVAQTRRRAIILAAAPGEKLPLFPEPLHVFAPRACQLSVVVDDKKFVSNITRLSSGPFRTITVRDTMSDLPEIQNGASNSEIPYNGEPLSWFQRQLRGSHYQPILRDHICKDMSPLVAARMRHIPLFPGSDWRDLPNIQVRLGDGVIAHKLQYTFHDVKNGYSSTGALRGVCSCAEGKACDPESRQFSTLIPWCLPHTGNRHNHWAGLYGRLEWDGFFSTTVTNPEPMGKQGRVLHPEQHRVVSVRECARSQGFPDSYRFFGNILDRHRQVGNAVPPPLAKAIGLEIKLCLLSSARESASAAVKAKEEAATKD

112 bp 5hmC:C:5meC top/unmodified bottom duplex, hemi-5meC CpG site
activity (methylation by bisulfite sequencing (14 of 16 clones)): 87.5%

112 bp 5hmC:C:5meC top/unmodified bottom duplex, hemi-5hmC CpG site
activity (no methylation across from 5hmC): 0%

112 bp 5hmC:C:5meC top/unmodified bottom duplex, unmodified CpG site
activity (no methylation by bisulfite sequencing): 0%
